Test results taken from patent US20210009975A1 (UNIVERSITY OF GEORGIA RESEARCH FOUNDATION, published 2021).

Assays:
[1] = target: proteins of MCF7 cell-free extract; assay: LAC, Sia-PS1 column, elution with 3′SL and 6′SL
[2] = target: proteins of MCF7 cell-free extract; assay: LAC, Sia-PS1 column, approximately 500 µg CFE loaded
[3] = target: proteins of MCF7 cell-free extract; assay: LAC, Sia-PS1 column, about 1.5 mg MCF7 proteins circulated at 4 °C overnight
fetuin [4] = target: fetuin (UniProt P12763)
[5] = target: 3'-sialyllactose-BSA (bovine)
[6] = target: 3'-sialyllactose-BSA (bovine); assay: LAC, Sia-3S1 column, 100 µg loaded
fetuin [7] = target: fetuin (UniProt P12763); assay: LAC, Sia-3S1 coupled to Sepharose column, 100 µg fetuin loaded
[8] = target: 3'-sialyllactose-BSA (bovine); assay: LAC, Sia-3S1 column, 50 µg loaded, 10 mM EPPS pH 7.5 with 110 mM NaCl
asialofetuin = target: T1, asialofetuin (UniProt P12763 19-359, de-sialylated glycans); assay: Western blot, Sia-3S1 as probe, anti-poly-His-HRP detection
T1 construct: also called de-sialylated fetuin
T1 sequence: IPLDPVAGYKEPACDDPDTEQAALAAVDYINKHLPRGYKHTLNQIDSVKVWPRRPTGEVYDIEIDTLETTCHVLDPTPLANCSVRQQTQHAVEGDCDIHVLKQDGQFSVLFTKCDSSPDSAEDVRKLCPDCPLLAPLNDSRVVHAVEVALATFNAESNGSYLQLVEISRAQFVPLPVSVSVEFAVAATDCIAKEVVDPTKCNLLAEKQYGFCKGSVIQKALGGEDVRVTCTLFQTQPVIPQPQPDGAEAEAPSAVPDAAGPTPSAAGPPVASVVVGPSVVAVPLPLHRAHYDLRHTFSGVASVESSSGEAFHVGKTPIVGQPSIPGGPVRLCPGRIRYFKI

horseradish peroxidase = target: T2, horseradish peroxidase (horseradish, UniProt P00433 31-338); assay: Lectenz affinity chromatography (LAC), Sia-PS1 coupled to Sepharose column
T2 construct: also called HRP
T2 sequence: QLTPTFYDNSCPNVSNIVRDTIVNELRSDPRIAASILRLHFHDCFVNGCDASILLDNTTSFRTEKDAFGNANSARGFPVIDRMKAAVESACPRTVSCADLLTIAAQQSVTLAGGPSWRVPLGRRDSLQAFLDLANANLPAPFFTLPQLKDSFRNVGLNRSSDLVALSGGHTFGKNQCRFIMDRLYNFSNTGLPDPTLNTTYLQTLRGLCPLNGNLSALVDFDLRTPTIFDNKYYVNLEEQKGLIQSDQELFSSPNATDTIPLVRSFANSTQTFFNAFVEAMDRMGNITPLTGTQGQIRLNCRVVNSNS

3'-sialyllactose-BSA (bovine), sequence (P02769 25-607 limits assumed): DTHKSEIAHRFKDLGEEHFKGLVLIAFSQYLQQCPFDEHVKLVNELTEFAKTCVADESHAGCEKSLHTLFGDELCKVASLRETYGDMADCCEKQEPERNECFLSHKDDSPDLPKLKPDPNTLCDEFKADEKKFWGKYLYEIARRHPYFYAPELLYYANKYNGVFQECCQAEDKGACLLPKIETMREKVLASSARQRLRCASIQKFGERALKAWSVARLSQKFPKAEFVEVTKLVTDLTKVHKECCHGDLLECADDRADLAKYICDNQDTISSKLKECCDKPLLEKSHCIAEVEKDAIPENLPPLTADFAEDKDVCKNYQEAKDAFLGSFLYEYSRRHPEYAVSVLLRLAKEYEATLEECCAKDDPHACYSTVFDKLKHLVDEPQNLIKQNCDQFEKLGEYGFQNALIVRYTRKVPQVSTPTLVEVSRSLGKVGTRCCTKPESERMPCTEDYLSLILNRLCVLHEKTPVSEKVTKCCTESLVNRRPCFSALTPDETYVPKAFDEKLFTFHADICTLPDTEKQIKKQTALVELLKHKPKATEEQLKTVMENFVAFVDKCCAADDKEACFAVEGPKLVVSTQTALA

Sia-PS1 Lectenz (NanB residues 30-697 with Y653F) (designed binder)
percent of total proteins bound to the column [1]: 10% | amount of bound proteins (elution peak) [2]: 30 µg | amount of unbound proteins (flow-through peak) [2]: 319 µg | amount of protein in eluted peak [3]: 207 µg | percent of loaded proteins in eluted peak [3]: 13.8%

Sia-3S1 Lectenz (NanB residues 30-697 with R193A, D270Q, A538V, E541D) (designed binder)
percent of bound fetuin competitively eluted by 3′SL (fetuin [4]): 100% | percent of bound fetuin competitively eluted by 6′SL (fetuin [4]): 50% | 3'SL-BSA Elution (amount of bound 3'SL-BSA eluted from the column) [5]: 45 µg | amount in flow through [6]: 5 µg | amount bound to the column (fetuin [7]): 85 µg | amount that did not bind to the column [8]: 5 µg

B1: Sia-3S1 Lectenz (NanB residues 30-697 with R193A, D270Q, A538V, E541D) (designed binder)
chain: NELNYGQLSISPIFQGGSYQLNNKSIDISSLLLDKLSGESQTVVMKFKADKPNSLQALFGLSNSKAGFKNNYFSIFMRDSGEIGVEIRDAQKGINYLFSRPASLWGKHKGQAVENTLVFVSDSKDKTYTMYVNGIEVFSETVDTFLPISNINGIDKATLGAVNAEGKEHYLAKGSIDEISLFNKAISDQEVSTIPLSNPFQLIFQSGDSTQANYFRIPTLYTLSSGRVLSSIDARYGGTHQSKSKINIATSYSDDNGKTWSEPIFAMKFNDYEEQLVYWPRDNKLKNSQISGSASFIDSSIVEDKKSGKTILLADVMPAGIGNNNANKADSGFKEINGHYYLKLKKNGDNDFRYTVRENGVVYNETTNKPTNYTINDKYEVLEGGKSLTVEQYSVDFDSGSLRERHNGKQVPMNVFYKDSLFKVTPTNYIAMTTSQNRGESWEQFKLLPPFLGEKHNGTYLCPGQGLALKSSNRLIFATYTSGELTYLISDDSGQTWKKSSASIPFKNVTADAQMVELRDGVIRTFFRTTTGKIAYMTSRDSGETWSKVSYIDGIQQTSYGTQVSAIKYSQLIDGKEAVILSTPNSRSGRKGGQLVVGLVNKEDDSIDWKYHYDIDLPSYGYAYSAITELPNHHIGVLFEKYDSWSRNELHLSNVVQYIDLEINDLTK
notes: also called Sia-31 [sic]; not shown: N-terminal hexa-histidine tag
binding result (asialofetuin): no binding (tested: 1 µM)

B2: Sia-PS1 Lectenz (NanB residues 30-697 with Y653F) (designed binder)
chain: NELNYGQLSISPIFQGGSYQLNNKSIDISSLLLDKLSGESQTVVMKFKADKPNSLQALFGLSNSKAGFKNNYFSIFMRDSGEIGVEIRDAQKGINYLFSRPASLWGKHKGQAVENTLVFVSDSKDKTYTMYVNGIEVFSETVDTFLPISNINGIDKATLGAVNREGKEHYLAKGSIDEISLFNKAISDQEVSTIPLSNPFQLIFQSGDSTQANYFRIPTLYTLSSGRVLSSIDARYGGTHDSKSKINIATSYSDDNGKTWSEPIFAMKFNDYEEQLVYWPRDNKLKNSQISGSASFIDSSIVEDKKSGKTILLADVMPAGIGNNNANKADSGFKEINGHYYLKLKKNGDNDFRYTVRENGVVYNETTNKPTNYTINDKYEVLEGGKSLTVEQYSVDFDSGSLRERHNGKQVPMNVFYKDSLFKVTPTNYIAMTTSQNRGESWEQFKLLPPFLGEKHNGTYLCPGQGLALKSSNRLIFATYTSGELTYLISDDSGQTWKKSSASIPFKNATAEAQMVELRDGVIRTFFRTTTGKIAYMTSRDSGETWSKVSYIDGIQQTSYGTQVSAIKYSQLIDGKEAVILSTPNSRSGRKGGQLVVGLVNKEDDSIDWKYHYDIDLPSYGYAFSAITELPNHHIGVLFEKYDSWSRNELHLSNVVQYIDLEINDLTK
binding result (horseradish peroxidase): no binding
